From US20160367623A1, “AGONISTS OF GUANYLATE CYCLASE USEFUL FOR THE TREATMENT OF GASTROINTESTINAL DISORDERS, INFLAMMATION, CANCER AND OTHER DISORDERS” (priority 2015, published 2016)
Bridge positions count the residues as written; N and C are the ends. Ends that are not written are not given here.

System: patients with chronic idiopathic constipation (CIC)
Assay: Second phase 3 CIC trial: treatment emergent adverse events, safety

What does the source list for “Asn^1-Asp^2-Glu^3-Cys^4-Glu^5-Leu^6-Cys^7-Val^8-Asn^9-Val^10-Ala^11-Cys^12-Thr^13-Gly^14-Cys^15-Leu^16 (NDECELCVNVACTGCL; disulfide 4-12, 7-15) [Plecanatide]”?
Influenza like illness: events E (Active Combined (N = 936)): 1; Influenza like illness: patients % (Active Combined (N = 936)): (0.1) %; Influenza like illness: patients (%) (Active Combined (N = 936)): (0.1) %; Influenza like illness: patients N (Active Combined (N = 936)): 1; Influenza: events E (Active Combined (N = 936)): 9; Influenza: patients % (Active Combined (N = 936)): (1.0) %; Influenza: patients N (Active Combined (N = 936)): 9; Injury, poisoning and procedural complications (SOC): events E (Active Combined (N = 936)): 19; Injury, poisoning and procedural complications (SOC): patients % (Active Combined (N = 936)): (1.7) %; Injury, poisoning and procedural complications (SOC): patients N (Active Combined (N = 936)): 16; Insomnia, events E (Active Combined (N = 936)): 3; Insomnia, patients (%) (Active Combined (N = 936)): (0.3) %; Insomnia, patients N (Active Combined (N = 936)): 3; Intervertebral disc disorder, Mild: events E (Active Combined (N = 936)): 0; Intervertebral disc disorder, Mild: patients N (Active Combined (N = 936)): 0; Intervertebral disc disorder, Moderate: events E (Active Combined (N = 936)): 0; Ligament sprain, events E (Active Combined (N = 936)): 2; Ligament sprain, patients (%) (Active Combined (N = 936)): (0.2) %; Ligament sprain, patients N (Active Combined (N = 936)): 2; Musculoskeletal and connective tissue disorders [System Organ Class], events E (Active Combined (N = 936)): 19; Musculoskeletal and connective tissue disorders [System Organ Class], patients (%) (Active Combined (N = 936)): (2.0) %; Musculoskeletal and connective tissue disorders [System Organ Class], patients N (Active Combined (N = 936)): 19; Musculoskeletal and connective tissue disorders, Mild: events E (Active Combined (N = 936)): 10; Musculoskeletal and connective tissue disorders, Mild: patients (%) (Active Combined (N = 936)): (1.1) %; Musculoskeletal and connective tissue disorders, Mild: patients N (Active Combined (N = 936)): 10; Musculoskeletal and connective tissue disorders, Moderate: events E (Active Combined (N = 936)): 9; Musculoskeletal and connective tissue disorders, Moderate: patients (%) (Active Combined (N = 936)): (1.0) %; Musculoskeletal and connective tissue disorders, Moderate: patients N (Active Combined (N = 936)): 9; Musculoskeletal and connective tissue disorders, Severe: events E (Active Combined (N = 936)): 0; Musculoskeletal and connective tissue disorders, Severe: patients N (Active Combined (N = 936)): 0; Musculoskeletal and connective tissue disorders: events E (Active Combined (N = 936)): 19; Musculoskeletal and connective tissue disorders: patients (%) (Active Combined (N = 936)): (2.0) %; Musculoskeletal and connective tissue disorders: patients N (Active Combined (N = 936)): 19; Musculoskeletal chest pain, Mild: events E (Active Combined (N = 936)): 1; Musculoskeletal chest pain, Mild: patients (%) (Active Combined (N = 936)): (0.1) %; Musculoskeletal chest pain, Mild: patients N (Active Combined (N = 936)): 1; Musculoskeletal chest pain, Moderate: events E (Active Combined (N = 936)): 0; Musculoskeletal chest pain, Moderate: patients N (Active Combined (N = 936)): 0; Musculoskeletal chest pain, Severe: events E (Active Combined (N = 936)): 0; Musculoskeletal chest pain, Severe: patients N (Active Combined (N = 936)): 0; Musculoskeletal chest pain: events E (Active Combined (N = 936)): 1; Musculoskeletal chest pain: patients (%) (Active Combined (N = 936)): (0.1) %; Musculoskeletal chest pain: patients N (Active Combined (N = 936)): 1; Musculoskeletal pain, Mild: events E (Active Combined (N = 936)): 1; Musculoskeletal pain, Mild: patients (%) (Active Combined (N = 936)): (0.1) %; Musculoskeletal pain, Mild: patients N (Active Combined (N = 936)): 1; Musculoskeletal pain, Moderate: events E (Active Combined (N = 936)): 1; Musculoskeletal pain, Moderate: patients (%) (Active Combined (N = 936)): (0.1) %; Musculoskeletal pain, Moderate: patients N (Active Combined (N = 936)): 1; Musculoskeletal pain, Severe: events E (Active Combined (N = 936)): 0; Musculoskeletal pain, Severe: patients N (Active Combined (N = 936)): 0; Musculoskeletal pain: events E (Active Combined (N = 936)): 2; Musculoskeletal pain: patients (%) (Active Combined (N = 936)): (0.2) %; Musculoskeletal pain: patients N (Active Combined (N = 936)): 2; SAE Musculoskeletal and connective tissue disorders, E events (Active Combined (N = 936)): 0; SAE Musculoskeletal and connective tissue disorders, N patients (Active Combined (N = 936)): 0; SAE Musculoskeletal and connective tissue disorders, No Reasonable Possibility, E events (Active Combined (N = 936)): 0; SAE Musculoskeletal and connective tissue disorders, No Reasonable Possibility, N patients (Active Combined (N = 936)): 0; SAE Musculoskeletal and connective tissue disorders, Reasonable Possibility, E events (Active Combined (N = 936)): 0; SAE Musculoskeletal and connective tissue disorders, Reasonable Possibility, N patients (Active Combined (N = 936)): 0; Skeletal injury, events E (Active Combined (N = 936)): 1; Skeletal injury, patients (%) (Active Combined (N = 936)): (0.1) %; Skeletal injury, patients N (Active Combined (N = 936)): 1; TE SAE: Musculoskeletal and connective tissue disorders, E events (Active Combined (N = 936)): 0; TE SAE: Musculoskeletal and connective tissue disorders, N patients (Active Combined (N = 936)): 0; TEAE Leading to Discontinuation: Infections and infestations, % patients (Active Combined (N = 936)): (0.1) %; TEAE Leading to Discontinuation: Infections and infestations, E events (Active Combined (N = 936)): 1; TEAE Leading to Discontinuation: Infections and infestations, N patients (Active Combined (N = 936)): 1; TEAE Leading to Discontinuation: Musculoskeletal and connective tissue disorders, E events (Active Combined (N = 936)): 0; TEAE Leading to Discontinuation: Musculoskeletal and connective tissue disorders, N patients (Active Combined (N = 936)): 0; TEAE Leading to Discontinuation: Viral infection, % patients (Active Combined (N = 936)): (0.1) %; TEAE Leading to Discontinuation: Viral infection, E events (Active Combined (N = 936)): 1; TEAE Leading to Discontinuation: Viral infection, N patients (Active Combined (N = 936)): 1; Musculoskeletal and connective tissue disorders [System Organ Class], events E (Plecanatide 3 mg (N = 467)): 8; Musculoskeletal and connective tissue disorders [System Organ Class], patients (%) (Plecanatide 3 mg (N = 467)): (1.7) %; Musculoskeletal and connective tissue disorders [System Organ Class], patients N (Plecanatide 3 mg (N = 467)): 8; Musculoskeletal and connective tissue disorders, Mild: events E (Plecanatide 3 mg (N = 467)): 4; Musculoskeletal and connective tissue disorders, Mild: patients (%) (Plecanatide 3 mg (N = 467)): (0.9) %; Musculoskeletal and connective tissue disorders, Mild: patients N (Plecanatide 3 mg (N = 467)): 4; Musculoskeletal and connective tissue disorders, Moderate: events E (Plecanatide 3 mg (N = 467)): 4; Musculoskeletal and connective tissue disorders, Moderate: patients (%) (Plecanatide 3 mg (N = 467)): (0.9) %; Musculoskeletal and connective tissue disorders, Moderate: patients N (Plecanatide 3 mg (N = 467)): 4; Musculoskeletal and connective tissue disorders, Severe: events E (Plecanatide 3 mg (N = 467)): 0; Musculoskeletal and connective tissue disorders, Severe: patients N (Plecanatide 3 mg (N = 467)): 0; Musculoskeletal and connective tissue disorders: events E (Plecanatide 3 mg (N = 467)): 8; Musculoskeletal and connective tissue disorders: patients (%) (Plecanatide 3 mg (N = 467)): (1.7) %; Musculoskeletal and connective tissue disorders: patients N (Plecanatide 3 mg (N = 467)): 8; Musculoskeletal chest pain, Mild: events E (Plecanatide 3 mg (N = 467)): 1; Musculoskeletal chest pain, Mild: patients (%) (Plecanatide 3 mg (N = 467)): (0.2) %; Musculoskeletal chest pain, Mild: patients N (Plecanatide 3 mg (N = 467)): 1; Musculoskeletal chest pain, Moderate: events E (Plecanatide 3 mg (N = 467)): 0; Musculoskeletal chest pain, Moderate: patients N (Plecanatide 3 mg (N = 467)): 0; Musculoskeletal chest pain, Severe: events E (Plecanatide 3 mg (N = 467)): 0; Musculoskeletal chest pain, Severe: patients N (Plecanatide 3 mg (N = 467)): 0; Musculoskeletal chest pain: events E (Plecanatide 3 mg (N = 467)): 1; Musculoskeletal chest pain: patients (%) (Plecanatide 3 mg (N = 467)): (0.2) %; Musculoskeletal chest pain: patients N (Plecanatide 3 mg (N = 467)): 1; Musculoskeletal pain, Mild: events E (Plecanatide 3 mg (N = 467)): 1; Musculoskeletal pain, Mild: patients (%) (Plecanatide 3 mg (N = 467)): (0.2) %; Musculoskeletal pain, Mild: patients N (Plecanatide 3 mg (N = 467)): 1; Musculoskeletal pain, Moderate: events E (Plecanatide 3 mg (N = 467)): 0; Musculoskeletal pain, Moderate: patients N (Plecanatide 3 mg (N = 467)): 0; Musculoskeletal pain, Severe: events E (Plecanatide 3 mg (N = 467)): 0; Musculoskeletal pain, Severe: patients N (Plecanatide 3 mg (N = 467)): 0; Musculoskeletal pain: events E (Plecanatide 3 mg (N = 467)): 1; Musculoskeletal pain: patients (%) (Plecanatide 3 mg (N = 467)): (0.2) %; Musculoskeletal pain: patients N (Plecanatide 3 mg (N = 467)): 1; Skeletal injury, events E (Plecanatide 3 mg (N = 467)): 0; Skeletal injury, patients N (Plecanatide 3 mg (N = 467)): 0; TE SAE: Musculoskeletal and connective tissue disorders, E events (Plecanatide 3 mg (N = 467)): 0; TE SAE: Musculoskeletal and connective tissue disorders, N patients (Plecanatide 3 mg (N = 467)): 0; TEAE Leading to Discontinuation: Musculoskeletal and connective tissue disorders, E events (Plecanatide 3 mg (N = 467)): 0; TEAE Leading to Discontinuation: Musculoskeletal and connective tissue disorders, N patients (Plecanatide 3 mg (N = 467)): 0; Musculoskeletal and connective tissue disorders [System Organ Class], events E (Plecanatide 6 mg (N = 469)): 11; Musculoskeletal and connective tissue disorders [System Organ Class], patients (%) (Plecanatide 6 mg (N = 469)): (2.3) %; Musculoskeletal and connective tissue disorders [System Organ Class], patients N (Plecanatide 6 mg (N = 469)): 11; Musculoskeletal and connective tissue disorders, Mild: events E (Plecanatide 6 mg (N = 469)): 6; Musculoskeletal and connective tissue disorders, Mild: patients (%) (Plecanatide 6 mg (N = 469)): (1.3) %; Musculoskeletal and connective tissue disorders, Mild: patients N (Plecanatide 6 mg (N = 469)): 6; Musculoskeletal and connective tissue disorders, Moderate: events E (Plecanatide 6 mg (N = 469)): 5; Musculoskeletal and connective tissue disorders, Moderate: patients (%) (Plecanatide 6 mg (N = 469)): (1.1) %; Musculoskeletal and connective tissue disorders, Moderate: patients N (Plecanatide 6 mg (N = 469)): 5; Musculoskeletal and connective tissue disorders, Severe: events E (Plecanatide 6 mg (N = 469)): 0; Musculoskeletal and connective tissue disorders, Severe: patients N (Plecanatide 6 mg (N = 469)): 0; Musculoskeletal and connective tissue disorders: events E (Plecanatide 6 mg (N = 469)): 11; Musculoskeletal and connective tissue disorders: patients (%) (Plecanatide 6 mg (N = 469)): (2.3) %; Musculoskeletal and connective tissue disorders: patients N (Plecanatide 6 mg (N = 469)): 11; Musculoskeletal chest pain, Mild: events E (Plecanatide 6 mg (N = 469)): 0; Musculoskeletal chest pain, Mild: patients N (Plecanatide 6 mg (N = 469)): 0; Musculoskeletal chest pain, Moderate: events E (Plecanatide 6 mg (N = 469)): 0; Musculoskeletal chest pain, Moderate: patients N (Plecanatide 6 mg (N = 469)): 0; Musculoskeletal chest pain, Severe: events E (Plecanatide 6 mg (N = 469)): 0; Musculoskeletal chest pain, Severe: patients N (Plecanatide 6 mg (N = 469)): 0; Musculoskeletal chest pain: events E (Plecanatide 6 mg (N = 469)): 0; Musculoskeletal chest pain: patients N (Plecanatide 6 mg (N = 469)): 0; Musculoskeletal pain, Mild: events E (Plecanatide 6 mg (N = 469)): 0; Musculoskeletal pain, Mild: patients N (Plecanatide 6 mg (N = 469)): 0; Musculoskeletal pain, Moderate: events E (Plecanatide 6 mg (N = 469)): 1; Musculoskeletal pain, Moderate: patients (%) (Plecanatide 6 mg (N = 469)): (0.2) %; Musculoskeletal pain, Moderate: patients N (Plecanatide 6 mg (N = 469)): 1; Musculoskeletal pain, Severe: events E (Plecanatide 6 mg (N = 469)): 0; Musculoskeletal pain, Severe: patients N (Plecanatide 6 mg (N = 469)): 0; Musculoskeletal pain: events E (Plecanatide 6 mg (N = 469)): 1; Musculoskeletal pain: patients (%) (Plecanatide 6 mg (N = 469)): (0.2) %; Musculoskeletal pain: patients N (Plecanatide 6 mg (N = 469)): 1; Skeletal injury, events E (Plecanatide 6 mg (N = 469)): 1; Skeletal injury, patients (%) (Plecanatide 6 mg (N = 469)): (0.2) %; Skeletal injury, patients N (Plecanatide 6 mg (N = 469)): 1; TE SAE: Musculoskeletal and connective tissue disorders, E events (Plecanatide 6 mg (N = 469)): 0; TE SAE: Musculoskeletal and connective tissue disorders, N patients (Plecanatide 6 mg (N = 469)): 0; TEAE Leading to Discontinuation: Musculoskeletal and connective tissue disorders, E events (Plecanatide 6 mg (N = 469)): 0; TEAE Leading to Discontinuation: Musculoskeletal and connective tissue disorders, N patients (Plecanatide 6 mg (N = 469)): 0
